Experiment [1] concerns the target T1, recombinant fusion protein comprised of the C-terminal extracellular domain of CD72 (aa 117-359) fused to a … (human, UniProt P21854 117-359, biotinylated (on the Fc domain; site not stated)).
T1 construct: range 117-359; Expressed in mammalian cells; CD72 is a type II protein, so the Fc may be N-terminal; also called CD72-Fc; CD72-ECD-Fc; not shown: human Fc domain
T1 sequence (looked up): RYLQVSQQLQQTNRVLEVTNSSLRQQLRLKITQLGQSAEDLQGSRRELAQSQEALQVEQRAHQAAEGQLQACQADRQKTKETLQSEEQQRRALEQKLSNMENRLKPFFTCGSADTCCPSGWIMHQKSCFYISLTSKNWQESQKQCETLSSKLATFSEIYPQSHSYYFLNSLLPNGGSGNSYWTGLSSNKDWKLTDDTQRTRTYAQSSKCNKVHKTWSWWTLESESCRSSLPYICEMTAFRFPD
Put plainly: on-yeast affinity measurement, flow cytometry, titration of CD72-Fc. An excerpt: FIG. 4a-e: Isolation of high-affinity CD72 nanobodies with yeast display (a) Schematic of workflow for in vitro anti-CD72 nanobody selection using yeast display. (b) Structure models of the recombinant Fc-fusion proteins used to perform yeast display selections. The Fc protein on the left was used to negatively select potential off-target nanobodies while the CD72-Fc protein (CD72 extracellular domain fused to a human Fc domain) was used to perform positive selection steps to isolate CD72-specific nanobodies (c) Schematic displaying the nanobody yeast display selection strategy for each MACS and FACS selection round to enrich for CD72-specific nanobody binders. Two rounds of MACS followed by four rounds of FACS with decreasing concentration of CD72 antigen produced high affinity anti-CD72 nanobodies. (d) On-yeast binding of recombinant CD72-Fc fusion protein for CD72-selected nanobodies Nb.B5 (nanobody sequence SEQ ID NO:2) and Nb.C2 (nanobody sequence SEQ ID NO:1) expressed on yeast to determine estimated binding affinities. Kd determined by curve fitting using non-linear least squares regression. (e) Flow cytometry plots of yeast clone Nb.C2 binding to 10 nM CD72-ECD-Fc protein (left) or 10 nM Fc protein (right). […]

Experiment [2] addresses T2, recombinant fusion protein comprised of the C-terminal extracellular domain of CD72 (aa 117-359) fused to a … (human, UniProt P21854 117-359, biotinylated (on the Fc domain; site not stated)).
T2 chain: T1 sequence (looked up)
Put plainly: on-yeast binding (yeast display titration).

The values that follow come from patent US20240299449A1 (University of California, published 2024).

B1: Nb.C2 (VHH)
VHH: QVQLQESGGGLVQAGGSLRLSCAASGTIFDWYSMGWYRQAPGKERELVAGIDTGANTYYADSVKGRFTISRDNAKNTVYLQMNSLKPEDTAVYYCAAHDDGDPWHVYWGQGTQVTVSS
notes: display was detected with anti-HA-FITC; also called yeast clone Nb.C2
For orientation: Kd means the free concentration of one partner at which half of the binding sites on the other are occupied at equilibrium, for simple one-to-one binding. As to B1, in experiment [1], the binding result is listed as “binds”. For the same molecule, the Kd in experiment [2] was found to be 1.5 nM.

B2: Nb.B5 (VHH)
VHH: QVQLQESGGGLVQAGGSLRLSCAASGTIFPVDYMGWYRQAPGKERELVAGINYGSNTYYADSVKGRFTISRDNAKNTVYLQMNSLKPEDTAVYYCAAWQPEGYAVDFYHPYWGQGTQVTVSS
With B2, the binding result in experiment [1] is reported as “binds”. In experiment [2], the Kd came out at 1 nM.
